Test results taken from PMC3431356, “Staphylococcus aureus Methicillin-Resistance Factor fmtA Is Regulated by the Global Regulator SarA” (PLoS ONE, 2012).

Target: the molecule itself
Experiment: SEC; Superdex 75 (10/300) column, 50 mM sodium phosphate pH 7.0, 0.4 mL/min, calibrated with four standards (LMW calibration kit); mass estimated from elution

B1: staphylococcal accessory regulator A (SarA) (natural protein)
chain: MAITKINDCFELLSMVTYADKLKSLIKKEFSISFEEFAVLTYISENKEKEYYLKDIINHLNYKQPQVVKAVKILSQEDYFDKKRNEHDERTVLILVNAQQRKKIESLLSRVNKRITEANNEIEL
notes: SarA, Staphylococcus aureus strain MRSA252; the 375 bp sarA coding region cloned in pET22b with the pelB leader removed; a 124-residue protein; the entry of strain MRSA252 is not recalled; No tag is described; The reverse primer appears to carry stop codons before the HindIII site, so the His tag of pET22b is probably not on the protein (surmise); Observed mass 14,635 D, theoretical mass 14,586 …
  stoichiometry N: 2
